Measured values published in the supplement of paper PMC10567573.
± gives the standard deviation.

Assay: protein stability index of a GFP-peptide fusion (GPS, HEK-293T) (PSI 1-6); higher = more stable
[1] = treatment: DMSO, c terminus: a fixed tail appended
[2] = treatment: MLN4924 1 uM, 8 h, c terminus: a fixed tail appended
[3] = treatment: DMSO, c terminus: native
[4] = treatment: MLN4924 1 uM, 8 h, c terminus: native
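Further: 24-mer peptide tiles fused after GFP, lentivirally expressed, FACS-sorted into six equal bins by GFP/DsRed ratio, decoded by Illumina sequencing, PSI is the read-weighted mean bin number.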

Sequence | protein stability index [1] | protein stability index [2] | protein stability index [3] | protein stability index [4]
LDSEKRTPLHVAAFLGDAEIIELL [ANKRD44] | 2.95 ± 0.12 | 3.03 ± 0.32 | – | –
QMPTEIEFPESRKPISTKSQFLKH [ZNF649] | 4.16 ± 0.19 | 4.26 ± 0.19 | – | –
MTTHPLTNNNIKQRLIKKVQEAVL [GOLPH3] | 2.79 ± 0.65 | 2.65 ± 0.59 | – | –
LQVAGLSEEQLQEPITGWRKTVCH [LPCAT4] | 3.29 ± 0.25 | 3.47 ± 0.12 | – | –
QNLLGFTPEELHAILGVQPDTED [ETS2] | – | – | 4.78 ± 0.39 | 4.85 ± 0.34
FFSEIISSVSDVKFSHSGRYMLTR [PPP2R2C] | 2.08 ± 0.48 | 2.06 ± 0.22 | – | –
RPDRSSQGGSLPSEEKGHPQEESE [CHGB] | 5.75 ± 0.27 | 5.48 ± 0.38 | – | –
VEGEQQAWFGFAGTPGYLSPEVLR [CAMK2A] | 3.48 ± 0.21 | 3.49 ± 0.4 | – | –
MSQALKATFSGFKKEQRRLGIPKN [ETS2] | 2.98 ± 0.29 | 3.08 ± 0.3 | – | –
KLKPHEEPLRSEILSGKFTILNVR [PTPN9] | 3.01 ± 0.14 | 2.96 ± 0.11 | – | –
SDKETDIDDRYGDLDSRTDSDIPE [CDS1] | 5.54 ± 0.31 | 5.43 ± 0.27 | – | –
AEFQSLFSLLEELKEGMLMKIKQD [FSD1] | 2.21 ± 0.36 | 2.33 ± 0.2 | – | –
LGKLIPRHQSIFKSNGFFHGISIP [CDKL4] | 2.17 ± 0.052 | 2.23 ± 0.41 | – | –
KLPLPVTIKSHLKSFSMANGMNAV [RAB40C] | 2.36 ± 0.18 | 2.46 ± 0.093 | – | –
FTLGDCDVIQALDLSVPLMDVGET [FKBP8] | 3.53 ± 0.093 | 3.54 ± 0.24 | – | –
PARTVLVGSLSWLRKQLQPTHCKY | 2.38 ± 0.43 | 2.19 ± 0.098 | – | –
VSPRRIFANGHTYHINSISVNSDC [PPP2R2C] | 2.67 ± 0.27 | 2.87 ± 0.19 | – | –
SEMEEEKRQAVNKAVANMQGEMDR [ZMYND11] | 5.41 ± 0.25 | 5.42 ± 0.29 | – | –
EEEEGTRSPTLEPPRGRSEAPDSL [SMG5] | 5.44 ± 0.14 | 5.68 ± 0.25 | – | –
SMPVRLLGHSPVLRNITNSQAPDG [CDC25B] | 3.23 ± 0.22 | 3.4 ± 0.24 | – | –
RQAELAIERCIFPERIYQGSSGSY [PI4K2A] | 2.72 ± 0.39 | 2.82 ± 0.28 | – | –
QPPSCQGEAAGSSLIGHLQTLSPD [DUSP5] | 4.76 ± 0.14 | 4.69 ± 0.13 | – | –
SESNSATVEEPPTDPIPEDEKKE [SMARCE1] | – | – | 5.58 ± 0.47 | 5.41 ± 0.1

Sequence | protein stability index [1] | protein stability index [2] | protein stability index [3] | protein stability index [4]
GDLIEITDAKKREALYAQDPSTGC [KMT5A] | 5 ± 0.24 | 4.86 ± 0.33 | – | –
LSDREVVNLFLHFTVNPKPRVEYI [BTBD1] | 2.98 ± 0.73 | 2.5 ± 0.26 | – | –
LVENAKNFPQCVLEISDQEVLEWY [EFHC1] | 2.96 ± 0.23 | 2.87 ± 0.23 | – | –
EGSRKSSRVKGSAPEIDPSSDGSN [KMT2E] | 5.36 ± 0.17 | 5.21 ± 0.18 | – | –
QAYKWSNKLQYHAGLASGLLNQQS [MED27] | 2.46 ± 0.28 | 2.42 ± 0.096 | – | –
LEGEEENELTLNEKNFFPEYNYDW [CHGB] | 4.21 ± 0.37 | 4.46 ± 0.28 | – | –
ESPSFLSLRKGASLSNGQGSRVLH [NCK2] | 3.83 ± 0.27 | 3.92 ± 0.16 | – | –
RRTPPGQQRPHPRSHSREPRAERK [ELOA2] | 5.332 ± 0.008 | 5.58 ± 0.17 | – | –
DPSNRSFFSEIISSVSDVKFSHSG [PPP2R2C] | 3.43 ± 0.25 | 3.44 ± 0.29 | – | –
PSTASLLLCPGGLDHKLNLRGKAW [TIAF1] | 2.69 ± 0.24 | 2.87 ± 0.24 | – | –
RYADLEAVNRARRPLARPIKPNEI [RHOBTB2] | 3.77 ± 0.21 | 3.7 ± 0.22 | – | –
DILVLLGASLYAISNVCEEYIVKK [SLC35F2] | 3.41 ± 0.61 | 2.89 ± 0.47 | – | –
ASRVKLQHLPAQEQWDRLLVLYPT [PLEKHN1] | 2.21 ± 0.14 | 2.41 ± 0.35 | – | –
TIQVHRRYWRSLRVMKVEDREGPS [HDAC6] | 2.31 ± 0.21 | 3.14 ± 0.34 | – | –
AHAGAVHNGKIYISGGVHNGEYVP [KLHL14] | 3.03 ± 0.28 | 2.82 ± 0.41 | – | –
EDGMQCLQLKETLATQEPTDNQVR [DLC1] | 5.35 ± 0.13 | 5.5 ± 0.092 | – | –
APVSRGRDSYGGPPRREPLPSRRD [RBMX] | 5.12 ± 0.21 | 4.93 ± 0.22 | – | –
PGAGSRRRGRMALCGQAAGAASLP [FBXO33] | 2.76 ± 0.2 | 2.97 ± 0.17 | – | –
FSKSKELHPDRDPGNPSLHSRFVE [DNAJC4] | 3.91 ± 0.25 | 4.22 ± 0.12 | – | –
ERPQDRDTPVQNKRRRSVTPPEEQ [CDC25B] | 5.34 ± 0.18 | 5.32 ± 0.23 | – | –
HHSFPYDYSASEYRWHINFTTFFI [SCD] | 3.06 ± 0.5 | 2.86 ± 0.41 | – | –
ICTRKPEEIRGGGLLKYCSLLVHG [TENT5D] | 2.24 ± 0.43 | 2.03 ± 0.3 | – | –
EADGSTNNGIFQINSRRWCSNLTP [SPACA3] | 3.43 ± 0.33 | 3.66 ± 0.32 | – | –

Sequence | protein stability index [1] | protein stability index [2] | protein stability index [3] | protein stability index [4]
EFQERARKRIRTYLKSCRRMKKNG [NOL4L] | 3.31 ± 0.19 | 3.19 ± 0.23 | – | –
KPYNCLQCLDKTNESALVKEKELS [MTUS2] | 4.74 ± 0.14 | 4.59 ± 0.23 | – | –
SQWDVLSGDCDQRFRFPSPILKVQ [RBBP5] | 3.34 ± 0.14 | 3.38 ± 0.32 | – | –
SDLTLYLVVAVAAVSCVFLAFVIV [PCDHGA10] | 2.97 ± 0.61 | 2.71 ± 0.5 | – | –
CTDCGKSFNHNAHLTVHKRIHTGE [ZNF8] | 4.54 ± 0.21 | 4.41 ± 0.21 | – | –
KKTWKILTIMPYNSAHHCVVEVEN [KLHL14] | 2.27 ± 0.37 | 2.64 ± 0.26 | – | –
MTEAALALSEQKAQDLGELLATAE [LRRC45] | 5.16 ± 0.13 | 5.08 ± 0.13 | – | –
LEKPPAPNQAMVVAAAGDACPPQH [TBC1D10A] | 5.21 ± 0.21 | 5.2 ± 0.33 | – | –
AAAYSPSEALLYALVHDHQAYAHY [ANKRD9] | 2.05 ± 0.14 | 2.27 ± 0.28 | – | –
QNAALRGELSQARGQEPARADQLC [PRPH] | 5.12 ± 0.23 | 5.02 ± 0.37 | – | –
SATLSWKQPPLSTVPADGYILELD [TRIM9] | 3.52 ± 0.33 | 3.63 ± 0.37 | – | –
KLCTAHMCSTLEHNCAHFCINIPG [MATN2] | 2.22 ± 0.38 | 2.22 ± 0.29 | – | –
AQDPDVGTNTVSFYTLSPNSHFSL [PCDHGC5] | 2.57 ± 0.26 | 2.61 ± 0.3 | – | –
LTKASLKPRGCSKPPWRPPGGKL [SPACA9] | – | – | 2.55 ± 0.65 | 3.35 ± 1
FLLRNSQRTVGQLMELCRLYHRAD [EDARADD] | 2.12 ± 0.24 | 2.23 ± 0.25 | – | –
AGIVRVFSGTPPPPVLSFRLVHTT [FCHO1] | 1.99 ± 0.07 | 2.13 ± 0.57 | – | –
ESHATLTLAQAHFNNGEYAEAEAL [TTC32] | 5.19 ± 0.2 | 5.04 ± 0.15 | – | –
RKVVQSLEQTAREILTLLQGVHQG [TSN] | 2.34 ± 0.31 | 2.81 ± 0.53 | – | –
EIDTPDKFGRTCLHAAAAGGNVEC [ANKRD44] | 4.24 ± 0.16 | 4.37 ± 0.23 | – | –
HCRKCGKAVCGKCSSKRSSIPLMG [WDFY2] | 3.94 ± 0.21 | 3.93 ± 0.17 | – | –
KYPSHSFIGEESVAAGEKSILTDN [IMPA1] | 4.66 ± 0.24 | 4.75 ± 0.1 | – | –
SQIETLTSVFQKKLCTAHMCSTLE [MATN2] | 2.03 ± 0.2 | 2.81 ± 0.74 | – | –
NNFREYNLHRVAAHELGHSLGLSH [MMP1] | 2.85 ± 0.22 | 3.01 ± 0.13 | – | –

Sequence | protein stability index [1] | protein stability index [2] | protein stability index [3] | protein stability index [4]
DAALLEMENNHTVAITILQDDHDH [MTUS2] | 4.98 ± 0.21 | 4.92 ± 0.065 | – | –
PASQAASSSSASADLLAGFGGSFM [SNAP91] | 3.89 ± 0.24 | 3.73 ± 0.12 | – | –
SGVCLFAVFIALLPILGHRDYKIQ [PTGFR] | 3.6 ± 0.45 | 3.37 ± 0.12 | – | –
YSQGRLSEAEEALYLIAKRNRKLK [SLC22A15] | 2.81 ± 0.2 | 3 ± 0.063 | – | –
RYPTISMVKPLLHMLLNTTLNIKE [ZBED1] | 2.83 ± 0.58 | 3.37 ± 0.72 | – | –
PELRQLVLSLLSLEPAQRPPLSHI [NEK8] | 2.56 ± 0.41 | 2.47 ± 0.46 | – | –
GILNRPPAPTATVPAPQPPVTKPL [ZNF207] | 4.53 ± 0.19 | 4.57 ± 0.16 | – | –
ACGDAFTVAIGAESEVYSWGKGAR [NEK8] | 2.84 ± 0.23 | 2.77 ± 0.3 | – | –
IDPETKKHIPYREHKSLTGTARYM [CSNK1G3] | 3.38 ± 0.45 | 3.72 ± 0.18 | – | –
LTSMRRLSSIKRDTNSIAKAIKAR [STX11] | 3.4 ± 0.26 | 3.64 ± 0.34 | – | –
AGQEGEDTLRRRLLAPEAGSHPQQ [TOR1AIP2] | 3.22 ± 0.89 | 3.8 ± 0.52 | – | –
ETFAFQAEIAQLMSLIINTFYSNK [HSP90AB1] | 2.84 ± 0.66 | 2.63 ± 0.54 | – | –
EVVNRKFGNRIKVLRSRIRFIHLV [POMT2] | 2.56 ± 0.22 | 2.43 ± 0.43 | – | –
QTEELKYSIDQEFLKEYFPIEVVT [NLN] | 3.23 ± 0.37 | 3.49 ± 0.29 | – | –
FELQRLEFDLSPLNLDIGQVYKET [AASDHPPT] | 2.42 ± 0.092 | 2.29 ± 0.62 | – | –
LINTSDTVQHGAVYSLEPRLCGGK [SDE2] | 3.97 ± 0.43 | 3.97 ± 0.33 | – | –
SEADPQALLQAMKDLDGMDADILG [FBF1] | 5.28 ± 0.25 | 5.16 ± 0.35 | – | –
VERAAAAAAAAAGGDAGHAPFPPP [C6orf223] | 5.08 ± 0.65 | 5.22 ± 0.4 | – | –
DEEKKARRGRSPKGEFKDEEETVT [CLINT1] | 5.43 ± 0.28 | 5.57 ± 0.14 | – | –
ESLPHRLSCLGQQQQEPPLAMGTV [PLAGL1] | 3.92 ± 0.17 | 4.04 ± 0.26 | – | –
